Consider eleven compounds from US20020123068A1, “Water-soluble, fluorescent, & electrophoretically mobile peptidic substrates for enzymatic reactions and methods for their use in high-throughput screening assays” (priority 2001, published 2002).

Data set [1] is described as follows: Solubility of peptides and fluorescent peptide conjugates in aqueous buffer. It counts as physicochemical.
Data set [2] addresses T1, protein kinase A (PKA) (Bos taurus, UniProt P00517).
T1 construct: purchased Promega (Madison, WI)
The experiment in a line: Protein kinase A phosphorylation assay (PepTag assay kit), agarose gel electrophoresis readout. It counts as biochemical. As for the experimental part:
The fluorescent peptides were assayed with protein kinase A (PKA) using the PepTag assay kit from Promega (Madison, WI). The concentrations of the peptides in the assay were 60 μM, and the concentration of ATP was 1 mM. After completion of the assay the 25 μL reaction mixtures were spiked with 5 μL of 50% glycerol and submitted to gel electrophoresis in a 0.8% horizontal agarose slab in 50 mM TRIS HCl, pH 8.0. The gels were imaged with a fluorescence imager. The results appear in FIG. 1. The Lissamine Kemptide reaction mixtures (− & + kinase) are included as controls. It is clear that both isomers of N-(TXR)LRRASLG [SEQ. ID NO.

The target of data set [3] is T2, SRC Kinase (Homo sapiens, UniProt P12931). The experiment in a line: SRC kinase assay of fluorescent peptidic substrates, agarose gel electrophoresis readout. It counts as biochemical. The conditions noted are these: for substrate of SRC kinase (FIG. 4): peptide 20 μM, 10 units SRC kinase, 1 h at room temperature. As for the experimental part:
An assay of the fluorescent peptidic substrate was performed in the presence of SRC Kinase. The peptide concentration was 10 μM, and the ATP concentration was 100 μM. The reaction proceeded in a buffer comprising 25 mM sodium (N-[2-hydroxyethyl]piperazine-N′-[2-ethanesulfonate]), 20 mM magnesium chloride, pH 7.4 for 90 min at room temperature, and the reaction mixture was submitted to gel electrophoresis in a 0.8% agarose slab at pH 8.0. Nearly 75% conversion of the substrate to product took place, and the substrate and product migrated in opposite directions. The results appear in FIG. 3.
A kinase assay was performed with each of these peptides as substrates. The concentrations of the Ac-C-[S-(BTR-Jeff)]EEFIYGAFKKKK [SEQ. ID NO. 3] and Ac-C-[S-(BTR-Jeff)]EEFIYGAFRRRR [SEQ. ID NO. 4] were 20 μM, respectively. The ATP concentration in each reaction was 100 μM, and 10 units of SRC kinase were added per reaction. The reactions proceeded at room temperature for 1 h. The reaction mixtures were spiked with 50% glycerol to give a final concentration of 10%. The samples (25 μL) were submitted to gel electrophoresis on a 0.8% agarose slab in 50 mM TRIS HCl, pH 8.0.
The SRC substrate Ac-C-[S-(TXR-Jeff)]EEFIYGAFKKKK [SEQ. ID NO. 5] was prepared and assayed as described by the method in Example 5 with the exceptions that TXR-Jeffamine-BAA was used as the fluorophore and the assay was allowed to proceed overnight. The results of the assay appear in FIG. 5. The anode is to the left and the cathode to the right. N-(TXR)-LRRASLG [SEQ. ID NO. 11] (Texas Red labeled Kemptide) and its phosphorylated derivative were included as mobility standards.

The target of data set [4] is T2, SRC Kinase. Conditions: screen done by investigators at Selectide; cited from earlier work.
In data set [5] the test system is T3, C-[S-(TXR-Jeff)]EEEFIYGAFKKKK
T3 sequence: CEEEFIYGAFKKKK

Data set [6] concerns T4, conjugate comprising just the BODIPY630/650 and Kemptide.
T4 sequence: LRRASLG

Where a SMILES comes first, the peptide text is derived from it. Where no end group is shown, it is not given here. Side-chain parts run from the residue outwards. Texas Red = Texas Red: fluorescent dye

For the compound `CC[C@H](C)[C@H](NC(=O)[C@H](Cc1ccccc1)NC(=O)[C@H](C)NC(=O)[C@H](C)NC(=O)[C@@H](N)CS)C(=O)N[C@@H](Cc1ccc(O)cc1)C(=O)NCC(=O)N[C@@H](C)C(=O)N[C@@H](Cc1ccccc1)C(=O)N[C@@H](CCCCN)C(=O)O` [CAAFIYGAFK] (H-CAAFIYGAFK-OH; N-terminus and C-terminus assumed), the solubility entry in data set [1] is given as “Insolubility”. As for “(BODIPY-PEG)-labeled Kemptide: BODIPY630/650 coupled to Kemptide LRRASLG through a 3,400 molecular weight PEG spacer (not fully specified; also: BODIPY630/650 label, attachment site not given here)”, in data set [2], the “phosphorylation by Protein Kinase A (Example 3, FIG. 2)” value is “successfully phosphorylated”. For “Ac-C-[S-(BTR-Jeff)]EEFIYGAFKKKK: BODIPY TR-Jeffamine ED-900 conjugate of N-acetylated peptide Ac-CEEFIYGAFKKKK (Ac-C([Jeffamine ED‑900-BODIPY TR])EEFIYGAFKKKK)”, the “substrate of SRC kinase (FIG. 4)” value in data set [3] (ATP 100 μM) was “is a substrate of SRC kinase”. Turning to “Ac-C-[S-(BTR-Jeff)]EEFIYGAFRRRR: BODIPY TR-Jeffamine ED-900 conjugate of N-acetylated peptide Ac-CEEFIYGAFRRRR (Ac-C([Jeffamine ED‑900-BODIPY TR])EEFIYGAFRRRR)”, the “quality/reactivity as substrate for SRC kinase (in words)” value (from here on “quality/reactivity as substrate”) in data set [3] was “did not result in a sufficiently reactive substrate”. In addition, the “substrate of SRC kinase (FIG. 4)” value in data set [3] (ATP 100 μM) is given as “is not”. Besides, the solubility entry in data set [1] is recorded as “much lower”. As for “Ac-C-[S-(TXR-Jeff)]EEFIYGAFKKKK: Texas Red-Jeffamine ED-900 conjugate of N-acetylated peptide Ac-CEEFIYGAFKKKK (Example 6) (Ac-C([Jeffamine ED‑900-Texas Red])EEFIYGAFKKKK)”, in data set [3], the “quality/reactivity as substrate” value is on record as “good reactivity”. The Km is the substrate concentration at which the rate is half of its maximum. Regarding “C-[S-(TXR-Jeff)]EEEFIYGAFKKKK: Texas Red linked through a Jeffamine ED-900 PEG spacer to the cysteine thiol of peptide CEEEFIYGAFKKKK; SRC kinase substrate (C([Jeffamine ED‑900-Texas Red])EEEFIYGAFKKKK)”, in data set [3], the “quality/reactivity as substrate” value was “good substrate”. For the same compound, in data set [3] (fluorescent peptide as substrate for SRC Kinase), the Km stood at 8.5 µM. In addition, the “conversion of the substrate to product” value in data set [3] (peptide 10 μM, ATP 100 μM, pH 7.4, 90 min at room temperature) was approximately 75%. For the compound FIYGAFK (Test Substrate Sequence), the “active substrate of SRC Kinase in resin-bound peptide library screen” value in data set [4] is reported as “active substrate”.

For the compound “N-(TXR)LRRASLG: Texas Red-X labeled Kemptide prepared for comparison (Example 1) ({Texas Red‑X}-LRRASLG)”, the “substrate for PKA (FIG. 1)” value in data set [2] (peptide 60 μM, ATP 1 mM) is “substrates for PKA”. In the case of SRC kinase, in data set [5], the “Km (kinase assay)” value was “Km=8.5 µM” and the “conversion of the substrate to product (kinase assay, agarose gel electrophoresis)” value is on record as “Nearly 75% conversion of the substrate to product took place”.

“conjugate comprising just the BODIPY630/650 and Kemptide: BODIPY630/650 coupled to Kemptide LRRASLG without PEG spacer (also: BODIPY630/650 coupled without spacer, site not given here) [reference compound]”: in data set [2], the “phosphorylation by Protein Kinase A (Example 3, FIG. 2)” value is “could not phosphorylate”. Further, the solubility entry in data set [1] is given as “so low”. Take protein kinase A (PKA): the phosphorylation result in data set [6] was “its solubility was so low that Protein Kinase A could not phosphorylate it”.
